Sequences and labels used below:
B1: F1*; the commonest letter at each place (parent)
chain: GAGACCGCAACTGAAAAGTTGTTATCACTTGTCGTAAGACACTTTGGATGGGTTGAAGTTCTGCACGTAGAAGCAAAAGGC

Variants of B1 are the subject of this data set. Nature of the data set: fraction ligated after 30 min (ligated reads / total reads); higher = more ligase activity. The following applies: with F1*sub RNA substrate (template-directed ligation), 42 °C. The procedure: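 Chip-synthesised pool of F1* ligase ribozyme variants (all single and double substitutions, single, double and triple deletions in the catalytic core and GAA bulge, plus designed variants) was transcribed with T7 and reacted as a pool with excess substrate F1*sub for 30 min at 42 C in 50 mM EPPS pH 8.5, 25 mM MgCl2. Ligated and unligated bands were separated by PAGE, barcoded by RT and deep sequenced; fraction ligated = ligated reads / total reads per variant, relative activity = FL / FL of wild type (0.826). Sequences are the DNA template of the ribozyme.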
As to GAGACCGCAACTGAAAAGTTGTAATCACTTGTCGTAAGACACTCTGGATGGGTTGAAGTTCTGCACGTAGAAGCAAAAGGC [T23A T44C], the fraction ligated came to 0.784. Next, GAGACCGCAACTGAAAAGTTGTAATCACTTGTCGTAAGACACTATGGATGGGTTGAAGTTCTGCACGTAGAAGCAAAAGGC [T23A T44A]: 0.819; GAGACCGCAACTGAAAAGTTGTAATCACTTGTCGTAAGACACTGTGGATGGGTTGAAGTTCTGCACGTAGAAGCAAAAGGC [T23A T44G]: 0.801; GAGACCGCAACTGAAAAGTTGTAATCACTAGTCGTAAGACACTTTGGATGGGTTGAAGTTCTGCACGTAGAAGCAAAAGGC [T23A T30A]: 0.797. Next, GAGACCGCAACTGAAAAGTTGTAATCACTGGTCGTAAGACACTTTGGATGGGTTGAAGTTCTGCACGTAGAAGCAAAAGGC [T23A T30G]: 0.803; GAGACCGCAACTGAAAAGTTGTAATCACTCGTCGTAAGACACTTTGGATGGGTTGAAGTTCTGCACGTAGAAGCAAAAGGC [T23A T30C]: 0.793; GAGACCGCAACTGAAAAGTTGTCATCTCTTGTCGTAAGACACTTTGGATGGGTTGAAGTTCTGCACGTAGAAGCAAAAGGC [T23C A27T]: 0.804. To GAGACCGCAACTGAAAAGTTGTCATCCCTTGTCGTAAGACACTTTGGATGGGTTGAAGTTCTGCACGTAGAAGCAAAAGGC [T23C A27C] belongs 0.775; to GAGACCGCAACTGAAAAGTTGTCATCGCTTGTCGTAAGACACTTTGGATGGGTTGAAGTTCTGCACGTAGAAGCAAAAGGC [T23C A27G], 0.781. On to GAGACCGCAACTGAAAAGTTGTCATCACTTGTCGTAGGACACTTTGGATGGGTTGAAGTTCTGCACGTAGAAGCAAAAGGC [T23C A37G], for which the fraction ligated stood at 0.837. Turning to GAGACCGCAACTGAAAAGTTGTCATCACTTGTCGTATGACACTTTGGATGGGTTGAAGTTCTGCACGTAGAAGCAAAAGGC [T23C A37T], the fraction ligated was determined as 0.796. Next, GAGACCGCAACTGAAAAGTTGTCATCACTTGTCGTACGACACTTTGGATGGGTTGAAGTTCTGCACGTAGAAGCAAAAGGC [T23C A37C]: 0.821; GAGACCGCAACTGAAAAGTTGTAATCACTTGTCGTAAGACACTTTGGACGGGTTGAAGTTCTGCACGTAGAAGCAAAAGGC [T23A T49C]: 0.731; GAGACCGCAACTGAAAAGTTGTAATCACTTGTCGTAAGACACTTTGGAGGGGTTGAAGTTCTGCACGTAGAAGCAAAAGGC [T23A T49G]: 0.827. Turning to GAGACCGCAACTGAAAAGTTGTAATCACTTGTCGTAAGACACTTTGGAAGGGTTGAAGTTCTGCACGTAGAAGCAAAAGGC [T23A T49A], the fraction ligated came to 0.791. To GAGACCGCAACTGAAAAGTTGTAATCACTTGTCGTAAGAGACTTTGGATGGGTTGAAGTTCTGCACGTAGAAGCAAAAGGC [T23A C40G] belongs 0.838; to GAGACCGCAACTGAAAAGTTGTAATCACTTGTCGTAAGATACTTTGGATGGGTTGAAGTTCTGCACGTAGAAGCAAAAGGC [T23A C40T], 0.833.

Regarding GAGACCGCAACTGAAAAGTTGTAATCACTTGTCGTAAGAAACTTTGGATGGGTTGAAGTTCTGCACGTAGAAGCAAAAGGC [T23A C40A], the fraction ligated turned out to be 0.815. Turning to GAGACCGCAACTGAAAAGTTGTAATCACTTGTCGTAAGACACTTTGGATGGGTTCAAGTTCTGCACGTAGAAGCAAAAGGC [T23A G55C], the fraction ligated stood at 0.292. Next, GAGACCGCAACTGAAAAGTTGTAATCACTTGTCGTAAGACACTTTGGATGGGTTTAAGTTCTGCACGTAGAAGCAAAAGGC [T23A G55T]: 0.783; GAGACCGCAACTGAAAAGTTGTAATCACTTGTCGTAAGACACTTTGGATGGGTTAAAGTTCTGCACGTAGAAGCAAAAGGC [T23A G55A]: 0.801. To GAGACCGCAACTGAAAAGTTGTAATCACATGTCGTAAGACACTTTGGATGGGTTGAAGTTCTGCACGTAGAAGCAAAAGGC [T23A T29A] belongs 0.826; to GAGACCGCAACTGAAAAGTTGTAATCACCTGTCGTAAGACACTTTGGATGGGTTGAAGTTCTGCACGTAGAAGCAAAAGGC [T23A T29C], 0.797; to GAGACCGCAACTGAAAAGTTGTAATCACGTGTCGTAAGACACTTTGGATGGGTTGAAGTTCTGCACGTAGAAGCAAAAGGC [T23A T29G], 0.82.

GAGACCGCAACTGAAAAGTTGTAATCACTTATCGTAAGACACTTTGGATGGGTTGAAGTTCTGCACGTAGAAGCAAAAGGC [T23A G31A]: the fraction ligated worked out at 0.816. Next, GAGACCGCAACTGAAAAGTTGTAATCACTTCTCGTAAGACACTTTGGATGGGTTGAAGTTCTGCACGTAGAAGCAAAAGGC [T23A G31C]: 0.779; GAGACCGCAACTGAAAAGTTGTAATCACTTTTCGTAAGACACTTTGGATGGGTTGAAGTTCTGCACGTAGAAGCAAAAGGC [T23A G31T]: 0.789; GAGACCGCAACTGAAAAGTTGTAATCACTTGTCGGAAGACACTTTGGATGGGTTGAAGTTCTGCACGTAGAAGCAAAAGGC [T23A T35G]: 0.817. To GAGACCGCAACTGAAAAGTTGTAATCACTTGTCGCAAGACACTTTGGATGGGTTGAAGTTCTGCACGTAGAAGCAAAAGGC [T23A T35C] belongs 0.811; to GAGACCGCAACTGAAAAGTTGTAATCACTTGTCGAAAGACACTTTGGATGGGTTGAAGTTCTGCACGTAGAAGCAAAAGGC [T23A T35A], 0.827.

For GAGACCGCAACTGAAAAGTTGTAATCACTTGTCGTAAGACACTTTAGATGGGTTGAAGTTCTGCACGTAGAAGCAAAAGGC [T23A G46A], the fraction ligated stood at 0.749.

As for GAGACCGCAACTGAAAAGTTGTAATCACTTGTCGTAAGACACTTTTGATGGGTTGAAGTTCTGCACGTAGAAGCAAAAGGC [T23A G46T], the fraction ligated was 0.479.

Turning to GAGACCGCAACTGAAAAGTTGTAATCACTTGTCGTAAGACACTTTCGATGGGTTGAAGTTCTGCACGTAGAAGCAAAAGGC [T23A G46C], the fraction ligated is 0.731. Next, GAGACCGCAACTGAAAAGTTGTAATCACTTGTCGTAAAACACTTTGGATGGGTTGAAGTTCTGCACGTAGAAGCAAAAGGC [T23A G38A]: 0.809.

The values are drawn from the supplement of paper PMC6755084.
